Laboratory results from doi:10.1101/422709 (bioRxiv, 2019).

B1: phosphoribulokinase from Arabidopsis thaliana (enzyme, UniProt P25697 47-395, looked up)
chain: AQETIVIGLAADSGCGKSTFMRRLTSVFGGAAKPPKGGNPDSNTLISDTTTVICLDDYHSLDRYGRKEQKVTALDPRANDFDLMYEQVKALKNGIAVEKPIYNHVTGLLDPPELIQPPKILVIEGLHPMFDERVRDLLDFSIYLDISNEVKFAWKIQRDMAERGHSLESIKASIEARKPDFDAFIDPQKQYADAVIEVLPTTLIPDDNEGKVLRVRLIMKEGVKYFSPVYLFDEGSTISWIPCGRKLTCSYPGIKFNYEPDSYFDHEVSVLEMDGQFDRLDELIYVESHLSNLSTKFYGEVTQQMLKHADFPGSNNGTGLFQTIVGLKIRDLYEQLIANKATARAEAKA
B2: phosphoribulokinase from Chlamydomonas reinhardtii (enzyme, UniProt P19824 32-375, looked up)
chain: DKDKTVVIGLAADSGCGKSTFMRRMTSIFGGVPKPPAGGNPDSNTLISDMTTVICLDDYHCLDRNGRKVKGVTALAPEAQNFDLMYNQVKALKEGKSVDKPIYNHVSGLIDAPEKIESPPILVIEGLHPFYDKRVAELLDFKIYLDISDDIKFAWKIQRDMAERGHSLESIKSSIAARKPDFDAYIDPQKKDADMIIQVLPTQLVPDDKGQYLRVRLIMKEGSKMFDPVYLFDEGSTISWIPCGRKLTCSFPGIKMFYGPDTWYGQEVSVLEMDGQFDKLEELIYVESHLSNTSAKFYGEITQQMLKNSGFPGSNNGTGLFQTIVGLKVREVYERIVKKDVVPV

Target: the molecule itself
Assay: crystal structure

Row | Protein | stoichiometry N
1 | B1 | 2
2 | B2 | 2
